Publication PMC8626070 (Science Advances, 2021)

How the values were obtained:
Assay in all cases: oriented sample solid-state NMR
[1] = molecular target: SLN^ΔT5R6E7 (sarcolipin with T5, R6 and E7 deleted) (UniProt O00631 1-31, ΔT5R6E7)
[2] = molecular target: SLN^ΔI3N4T5 (sarcolipin with I3, N4 and T5 deleted) (UniProt O00631 1-31, ΔI3N4T5)
[3] = molecular target: wild-type sarcolipin (SLN^wt), recombinant (UniProt O00631 1-31)
[4] = molecular target: SLN^ΔY29Q30Y31 (sarcolipin with Y29, Q30 and Y31 deleted) (UniProt O00631 1-31, ΔY29Q30Y31)

Measured: binding result

B1: sarcoplasmic reticulum Ca2+-ATPase SERCA1a purified from rabbit skeletal muscle (enzyme)
chain: MEAAHSKSTEECLAYFGVSETTGLTPDQVKRHLEKYGHNELPAEEGKSLWELVIEQFEDLLVRILLLAACISFVLAWFEEGEETITAFVEPFVILLILIANAIVGVWQERNAENAIEALKEYEPEMGKVYRADRKSVQRIKARDIVPGDIVEVAVGDKVPADIRILSIKSTTLRVDQSILTGESVSVIKHTEPVPDPRAVNQDKKNMLFSGTNIAAGKALGIVATTGVSTEIGKIRDQMAATEQDKTPLQQKLDEFGEQLSKVISLICVAVWLINIGHFNDPVHGGSWIRGAIYYFKIAVALAVAAIPEGLPAVITTCLALGTRRMAKKNAIVRSLPSVETLGCTSVICSDKTGTLTTNQMSVCKMFIIDKVDGDFCSLNEFSITGSTYAPEGEVLKNDKPIRSGQFDGLVELATICALCNDSSLDFNETKGVYEKVGEATETALTTLVEKMNVFNTEVRNLSKVERANACNSVIRQLMKKEFTLEFSRDRKSMSVYCSPAKSSRAAVGNKMFVKGAPEGVIDRCNYVRVGTTRVPMTGPVKEKILSVIKEWGTGRDTLRCLALATRDTPPKREEMVLDDSSRFMEYETDLTFVGVVGMLDPPRKEVMGSIQLCRDAGIRVIMITGDNKGTAIAICRRIGIFGENEEVADRAYTGREFDDLPLAEQREACRRACCFARVEPSHKSKIVEYLQSYDEITAMTGDGVNDAPALKKAEIGIAMGSGTAVAKTASEMVLADDNFSTIVAAVEEGRAIYNNMKQFIRYLISSNVGEVVCIFLTAALGLPEALIPVQLLWVNLVTDGLPATALGFNPPDLDIMDRPPRSPKEPLISGWLFFRYMAIGGYVGAATVGAAAWWFMYAEDGPGVTYHQLTHFMQCTEDHPHFEGLDCEIFEAPEPMTMALSVLVTIEMCNALNSLSENQSLMRMPPWVNIWLLGSICLSMSLHFLILYVDPLPMIFKLKALDLTQWLMVLKISLPVIGLDEILKFIARNYLEG
binds: [1] | [2] | [3] | [4]
